# Target: insulin-like growth factor receptor type 1 (IGF1R) (mouse (endogenous in HEI-OC1)) (UniProt Q60751)
# UniProt Q60751, sequence (Q60751 31-1373): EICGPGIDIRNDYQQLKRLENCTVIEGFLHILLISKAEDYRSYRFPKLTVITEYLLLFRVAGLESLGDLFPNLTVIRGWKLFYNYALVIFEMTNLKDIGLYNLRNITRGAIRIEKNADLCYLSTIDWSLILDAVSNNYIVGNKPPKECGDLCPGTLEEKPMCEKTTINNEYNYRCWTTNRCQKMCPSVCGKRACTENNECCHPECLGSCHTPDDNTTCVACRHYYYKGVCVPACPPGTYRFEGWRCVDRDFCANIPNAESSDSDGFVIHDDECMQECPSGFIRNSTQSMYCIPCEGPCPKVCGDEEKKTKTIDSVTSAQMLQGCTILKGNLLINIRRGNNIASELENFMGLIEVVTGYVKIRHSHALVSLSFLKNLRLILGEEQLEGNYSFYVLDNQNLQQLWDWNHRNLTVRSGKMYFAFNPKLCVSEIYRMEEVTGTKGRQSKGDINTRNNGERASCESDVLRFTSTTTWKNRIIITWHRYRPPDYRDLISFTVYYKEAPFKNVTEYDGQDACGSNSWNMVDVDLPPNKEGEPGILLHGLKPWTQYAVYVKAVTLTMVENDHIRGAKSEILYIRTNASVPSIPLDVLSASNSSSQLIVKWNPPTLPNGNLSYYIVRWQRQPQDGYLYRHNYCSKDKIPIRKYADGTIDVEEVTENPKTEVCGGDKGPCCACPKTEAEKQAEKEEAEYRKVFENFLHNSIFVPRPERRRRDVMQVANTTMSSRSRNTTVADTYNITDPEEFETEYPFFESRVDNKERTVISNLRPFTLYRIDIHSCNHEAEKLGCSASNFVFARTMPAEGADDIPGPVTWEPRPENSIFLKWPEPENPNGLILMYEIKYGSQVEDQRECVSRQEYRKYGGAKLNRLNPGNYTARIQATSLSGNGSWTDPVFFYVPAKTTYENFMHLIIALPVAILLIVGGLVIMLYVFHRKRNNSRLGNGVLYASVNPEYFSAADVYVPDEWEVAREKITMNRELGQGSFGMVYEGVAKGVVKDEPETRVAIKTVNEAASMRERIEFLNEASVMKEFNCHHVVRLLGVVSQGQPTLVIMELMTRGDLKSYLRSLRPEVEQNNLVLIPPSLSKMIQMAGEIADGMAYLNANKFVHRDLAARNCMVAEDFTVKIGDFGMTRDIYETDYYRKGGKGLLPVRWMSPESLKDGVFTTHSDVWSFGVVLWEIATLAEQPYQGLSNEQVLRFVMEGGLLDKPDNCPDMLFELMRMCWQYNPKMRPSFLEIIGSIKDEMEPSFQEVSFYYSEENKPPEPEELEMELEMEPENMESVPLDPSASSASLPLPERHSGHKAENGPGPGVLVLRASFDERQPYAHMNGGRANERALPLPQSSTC
substance,measurement,value
human recombinant IGF-1 (insulin-like growth factor 1) (from UniProt P05019 49-118) (ligand),"p-IGF1Rβ (Tyr1135) level by Western blot in HEI-OC1 progenitor cells treated with IGF-1 (10 nM), sustained for 30 min, versus untreated control",11 fold
same,"p-IGF1Rβ (Tyr1135) level by Western blot in differentiated HEI-OC1 cells treated with IGF-1 (10 nM) for 5 min, versus untreated control",3.5 fold

# Source: article PMC9952701
